Results from paper doi:10.1101/2020.01.13.904318 (bioRxiv, 2020).

Target: the molecule itself
Experiment: SEC

B1: purified FrlR UTRA-domain (domain or fragment)
chain: QKVENALLTVSGFTDFGVSQGKATKEKVIEQERVSAAPFCEKLNIPGNSEVFHLCRVMYLDKEPLFIDSSWIPLSRYPDFDEIYVEGSSTYQLFQERFDTRVVSDKKTIDIFAATRPQAKWLKCELGEPLFRISKIAFDQNDKPVHVSELFCRANRITLTIDNKRH
- stoichiometry N: 2
